T1: Plasmodium falciparum importin α, biotinylated GST fusion protein (Plasmodium falciparum, UniProt Q8IAW0 1-545, biotin (Sulfo-NHS-Biotin reagent))
T1 construct: importin α (IMPα) of Plasmodium falciparum; also called PfIMPα; IMPα from P. falciparum; source: recombinantly expressed, purified as GST fusion protein
T1 sequence (looked up): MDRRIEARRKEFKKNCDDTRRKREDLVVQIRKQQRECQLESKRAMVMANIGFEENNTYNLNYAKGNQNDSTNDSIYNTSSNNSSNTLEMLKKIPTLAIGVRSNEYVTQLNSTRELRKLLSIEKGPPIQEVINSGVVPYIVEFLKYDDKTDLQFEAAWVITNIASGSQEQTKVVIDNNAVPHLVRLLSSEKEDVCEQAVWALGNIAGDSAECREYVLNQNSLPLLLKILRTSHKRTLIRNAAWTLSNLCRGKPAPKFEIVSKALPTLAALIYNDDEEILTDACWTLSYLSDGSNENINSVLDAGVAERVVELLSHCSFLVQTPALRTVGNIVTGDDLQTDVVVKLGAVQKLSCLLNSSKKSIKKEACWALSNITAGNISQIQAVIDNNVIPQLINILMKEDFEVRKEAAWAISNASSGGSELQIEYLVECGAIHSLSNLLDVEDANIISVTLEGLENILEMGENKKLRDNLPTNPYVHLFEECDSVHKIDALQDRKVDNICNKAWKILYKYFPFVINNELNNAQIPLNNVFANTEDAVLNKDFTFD

B1: His-tagged Plasmodium falciparum importin α (natural protein, UniProt Q8IAW0 1-545, looked up)
chain: T1 sequence (looked up)
notes: importin α (IMPα) of Plasmodium falciparum; also called PfIMPα; His-tagged PfIMPα

Columns and labels:
Details in all cases: both partners purified
[1] = molecular target: mammalian IMPα/β1 heterodimer from M. musculus (Mus musculus, UniProt P52293 1-529; P70168 1-876, biotin (Sulfo-NHS-Biotin reagent)); experiment: AlphaScreen or HTRF; biotinylated IMPαs titrated against His-tagged NLS-GFPs (30 nM); apparent dissociation constant
[2] = molecular target: T1, Plasmodium falciparum importin α, …; experiment: as above
[3] = molecular target: T2, Toxoplasma gondii importin α, biotinylated GST fusion protein (Toxoplasma gondii, biotin (Sulfo-NHS-Biotin reagent)); experiment: as above
T2 construct: importin α (IMPα) of Toxoplasma gondii; also called TgIMPα; T. gondii IMPα; source: recombinantly expressed, purified as GST fusion protein

[4] = molecular target: T3, biotinylated GST-MmIMPβ1 (Mus musculus importin β1) (Mus musculus, UniProt P70168 1-876, biotin (Sulfo-NHS-Biotin reagent)); experiment: AlphaScreen or HTRF; His-tagged IMPαs (30 nM) titrated with increasing concentrations of biotinylated GST-MmIMPβ1 (legend: 5 nM)
T3 construct: Mus musculus importin β1 (MmIMPβ1); also called M. musculus IMPβ1; mammalian IMPβ1; source: recombinantly expressed, purified as GST fusion protein

Binder	Kd [1] [nM]	Kd [2] [nM]	Kd [3] [nM]	Kd [4] [nM]
PPKKKRKV (domain or fragment) [His-tagged T-ag-NLS-GFP (NLS of simian virus SV40 large tumour antigen fused to GFP)]	2.8	2.9	3.9	
B1				1.3

— paper PMC9695642, “Conservation of Importin α Function in Apicomplexans: Ivermectin and GW5074 Target Plasmodium falciparum Importin α and Inhibit Parasite Growth in Culture” (International Journal of Molecular Sciences, 2022)
